Key:
[1] = target: rat GluA2 flip(Q) isoform (unedited homotetrameric AMPA receptor), FLAG-tagged (rat, UniProt P19491-2 22-883); experiment: cryo-EM structure
[2] = target: the molecule itself; experiment: cryo-EM structure

Row | Binder | stoichiometry N [1] | binding result [2]
1 | rat TARPγ2 (stargazin) K52E/K53E (KKEE) mutant, 1D4-tagged (natural protein) MGLFDRGVQMLLTTVGAFAAFSLMTIAVGTDYWLYSRGVCKTKSVSENETSEENEEVMTHSGLWRTCCLEGNFKGLCKQIDHFPEDADYEADTAEYFLRAVRASSIFPILSVILLFMGGLCIAASEFYKTRHNIILSAGIFFVSAGLSNIIGIIVYISANAGDPSKSDSKKNSYSYGWSFYFGALSFIIAEMVGVLAVHMFIDRHKQLRATARATDYLQASAITRIPSYRYRYQRRSRSSSRSTEPSHSRDASPVGVKGFNTLPSTEISMYTLSRDPLKAATTPTATYNSDRDNSFLQVHNCIQKDSKDSLHANTANRRTTPV | 4 γ2(KKEE) per A2iQ tetramer | –
2 | rat GluA2 flip(Q) isoform N619K mutant, FLAG-tagged (receptor, UniProt P19491-2 22-883, looked up) VSSNSIQIGGLFPRGADQEYSAFRVGMVQFSTSEFRLTPHIDNLEVANSFAVTNAFCSQFSRGVYAIFGFYDKKSVNTITSFCGTLHVSFITPSFPTDGTHPFVIQMRPDLKGALLSLIEYYQWDKFAYLYDSDRGLSTLQAVLDSAAEKKWQVTAINVGNINNDKKDETYRSLFQDLELKKERRVILDCERDKVNDIVDQVITIGKHVKGYHYIIANLGFTDGDLLKIQFGGANVSGFQIVDYDDSLVSKFIERWSTLEEKEYPGAHTATIKYTSALTYDAVQVMTEAFRNLRKQRIEISRRGNAGDCLANPAVPWGQGVEIERALKQVQVEGLSGNIKFDQNGKRINYTINIMELKTNGPRKIGYWSEVDKMVVTLTELPSGNDTSGLENKTVVVTTILESPYVMMKKNHEMLEGNERYEGYCVDLAAEIAKHCGFKYKLTIVGDGKYGARDADTKIWNGMVGELVYGKADIAIAPLTITLVREEVIDFSKPFMSLGISIMIKKPQKSKPGVFSFLDPLAYEIWMCIVFAYIGVSVVLFLVSRFSPYEWHTEEFEDGRETQSSESTNEFGIFNSLWFSLGAFMQQGCDISPRSLSGRIVGGVWWFFTLIIISSYTAKLAAFLTVERMVSPIESAEDLSKQTEIAYGTLDSGSTKEFFRRSKIAVFDKMWTYMRSAEPSVFVRTTAEGVARVRKSKGKYAYLLESTMNEYIEQRKPCDTMKVGGNLDSKGYGIATPKGSSLGTPVNLAVLKLSEQGVLDKLKNKWWYDKGECGAKDSGSKEKTSALSLSNVAGVFYILVGGLGLAMLVALIEFCYKSRAEAKRMKVAKNPQNINPSSSQNSQNFATYKEGYNVYGIESVKI | – | binds
